Test results from patent publication US20240400618A1 (GRIFOLS DIAGNOSTIC SOLUTIONS, published 2024).
Read-outs that look alike come from different tables or passages of the source.

Key:
[1] = molecular target: T1, pxENB17-RBD-His (SARS-CoV-2, UniProt P0DTC2 319-541)
[2] = molecular target: T2, pxENB9-FLS-CT-His (SARS-CoV-2, UniProt P0DTC2 15-1213)
[3] = molecular target: T2, pxENB9-FLS-CT-His; remark: listed apart in the source
[4] = molecular target: T1, pxENB17-RBD-His; remark: listed apart in the source
[5] = molecular target: T1, pxENB17-RBD-His; experiment: BLI (Octet), ACE2 construct loaded on SA tips by its tag, RBD as analyte

Binder	Kd [1] [nM]	Kd [2] [nM]	other results
pxEBNCP22_hACE2_3A-mIgG(h23) (Fc fusion) QSTIEEQAKTFLDKFNHEAEDLFYQSSLASWNYNTNITEENVQNMNNAGDKWSAFLKEQSTLAQMYPLQEIQNLTVKLQLQALQQNGSSVLSEDKSKRLNTILNTMSTIYSTGKVCNPDAPAECLLLEPGLNEIMANSLDYNERLWAWESWRSEVGKALRPLYEEYVVLKNEMARANHYEDYGDYWRGDYEVNGVDGYDYSRGQLIEDVEHTFEEIKPLYEHLHAYVRAKLMNAYPSYISPIGCLPAHLLGDMWGRFWTNLYSLTVPFGQKPNIDVTDAMVDQAWDAQRIFKEAEKFFVSVGLPNMTQGFWENSMLTDPGNVQKAVCHPTAWDLGKGDFRILMCTKVTMDDFLTAHHEMGHIQYDMAYAAQPFLLRNGANEGFHEAVGEIMSLSAATPKHLKSIGLLSPDFQEDNETEINFLLKQALTIVGTLPFTYMLEKWRWMVFKGEIPKDQWMKKWWEMKREIVGVVEPVPHDETYCDPASLFHVSNDYSFIRYYTRTLYQFQFQEALCQAAKHEGPLHKCDISNSTEAGQKLFNMLRLGKSEPWTLALENVVGAKNMNVRPLLNYFEPLFTWLKDQNKNSFVGWSTDWSPYADVPRDCGCKPCICTVPEVSSVFIFPPKPKDVLTITLTPKVTCVVVDISKDDPEVQFSWFVDDVEVHTAQTQPREEQFNSTFRSVSELPIMHQDWLNGKEFKCRVNSAAFPAPIEKTISKTKGRPKAPQVYTIPPPKEQMAKDKVSLTCMITDFFPEDITVEWQWNGQPAENYKNTQPIMNTNGSYFVYSKLNVQKSNWEAGNTFTCSVLHEGLHNHHTEKSLSHSPGK	0.953	0.001	
pxENBCP23_hACE2_3A-mIgG(23) (Fc fusion) QSTIEEQAKTFLDKFNHEAEDLFYQSSLASWNYNTNITEENVQNMNNAGDKWSAFLKEQSTLAQMYPLQEIQNLTVKLQLQALQQNGSSVLSEDKSKRLNTILNTMSTIYSTGKVCNPDAPAECLLLEPGLNEIMANSLDYNERLWAWESWRSEVGKALRPLYEEYVVLKNEMARANHYEDYGDYWRGDYEVNGVDGYDYSRGQLIEDVEHTFEEIKPLYEHLHAYVRAKLMNAYPSYISPIGCLPAHLLGDMWGRFWTNLYSLTVPFGQKPNIDVTDAMVDQAWDAQRIFKEAEKFFVSVGLPNMTQGFWENSMLTDPGNVQKAVCHPTAWDLGKGDFRILMCTKVTMDDFLTAHHEMGHIQYDMAYAAQPFLLRNGANEGFHEAVGEIMSLSAATPKHLKSIGLLSPDFQEDNETEINFLLKQALTIVGTLPFTYMLEKWRWMVFKGEIPKDQWMKKWWEMKREIVGVVEPVPHDETYCDPASLFHVSNDYSFIRYYTRTLYQFQFQEALCQAAKHEGPLHKCDISNSTEAGQKLFNMLRLGKSEPWTLALENVVGAKNMNVRPLLNYFEPLFTWLKDQNKNSFVGWSTDWSPYADVPEVSSVFIFPPKPKDVLTITLTPKVTCVVVDISKDDPEVQFSWFVDDVEVHTAQTQPREEQFNSTFRSVSELPIMHQDWLNGKEFKCRVNSAAFPAPIEKTISKTKGRPKAPQVYTIPPPKEQMAKDKVSLTCMITDFFPEDITVEWQWNGQPAENYKNTQPIMNTNGSYFVYSKLNVQKSNWEAGNTFTCSVLHEGLHNHHTEKSLSHSPGK	24.5	38.7	
pxEBNCP15_hACE2-AAA-StrepTagII (receptor) QSTIEEQAKTFLDKFNHEAEDLFYQSSLASWNYNTNITEENVQNMNNAGDKWSAFLKEQSTLAQMYPLQEIQNLTVKLQLQALQQNGSSVLSEDKSKRLNTILNTMSTIYSTGKVCNPDAPAECLLLEPGLNEIMANSLDYNERLWAWESWRSEVGKALRPLYEEYVVLKNEMARANHYEDYGDYWRGDYEVNGVDGYDYSRGQLIEDVEHTFEEIKPLYEHLHAYVRAKLMNAYPSYISPIGCLPAHLLGDMWGRFWTNLYSLTVPFGQKPNIDVTDAMVDQAWDAQRIFKEAEKFFVSVGLPNMTQGFWENSMLTDPGNVQKAVCHPTAWDLGKGDFRILMCTKVTMDDFLTAHHEMGHIQYDMAYAAQPFLLRNGANEGFHEAVGEIMSLSAATPKHLKSIGLLSPDFQEDNETEINFLLKQALTIVGTLPFTYMLEKWRWMVFKGEIPKDQWMKKWWEMKREIVGVVEPVPHDETYCDPASLFHVSNDYSFIRYYTRTLYQFQFQEALCQAAKHEGPLHKCDISNSTEAGQKLFNMLRLGKSEPWTLALENVVGAKNMNVRPLLNYFEPLFTWLKDQNKNSFVGWSTDWSPYADGGSGWSHPQFEK			Kd [3]: 4710 nM; Kd [4]: 110 nM; Response, shift in Wavelength (nm) [5]: 0.0062 nm
pxEBNCP18_hACE2-AAA_p53 (receptor) QSTIEEQAKTFLDKFNHEAEDLFYQSSLASWNYNTNITEENVQNMNNAGDKWSAFLKEQSTLAQMYPLQEIQNLTVKLQLQALQQNGSSVLSEDKSKRLNTILNTMSTIYSTGKVCNPDAPAECLLLEPGLNEIMANSLDYNERLWAWESWRSEVGKALRPLYEEYVVLKNEMARANHYEDYGDYWRGDYEVNGVDGYDYSRGQLIEDVEHTFEEIKPLYEHLHAYVRAKLMNAYPSYISPIGCLPAHLLGDMWGRFWTNLYSLTVPFGQKPNIDVTDAMVDQAWDAQRIFKEAEKFFVSVGLPNMTQGFWENSMLTDPGNVQKAVCHPTAWDLGKGDFRILMCTKVTMDDFLTAHHEMGHIQYDMAYAAQPFLLRNGANEGFHEAVGEIMSLSAATPKHLKSIGLLSPDFQEDNETEINFLLKQALTIVGTLPFTYMLEKWRWMVFKGEIPKDQWMKKWWEMKREIVGVVEPVPHDETYCDPASLFHVSNDYSFIRYYTRTLYQFQFQEALCQAAKHEGPLHKCDISNSTEAGQKLFNMLRLGKSEPWTLALENVVGAKNMNVRPLLNYFEPLFTWLKDQNKNSFVGWSTDWSPYADGGGSKPLDGEYFTLQIRGRERFEMFRELNEALELKDAQAGKEPG	0.001	0.001	
pxEBNCP9_hIL2-hACE2(18-615) (receptor) QSTIEEQAKTFLDKFNHEAEDLFYQSSLASWNYNTNITEENVQNMNNAGDKWSAFLKEQSTLAQMYPLQEIQNLTVKLQLQALQQNGSSVLSEDKSKRLNTILNTMSTIYSTGKVCNPDAPAECLLLEPGLNEIMANSLDYNERLWAWESWRSEVGKALRPLYEEYVVLKNEMARANHYEDYGDYWRGDYEVNGVDGYDYSRGQLIEDVEHTFEEIKPLYEHLHAYVRAKLMNAYPSYISPIGCLPAHLLGDMWGRFWTNLYSLTVPFGQKPNIDVTDAMVDQAWDAQRIFKEAEKFFVSVGLPNMTQGFWENSMLTDPGNVQKAVCHPTAWDLGKGDFRILMCTKVTMDDFLTAHHEMGHIQYDMAYAAQPFLLRNGANEGFHEAVGEIMSLSAATPKHLKSIGLLSPDFQEDNETEINFLLKQALTIVGTLPFTYMLEKWRWMVFKGEIPKDQWMKKWWEMKREIVGVVEPVPHDETYCDPASLFHVSNDYSFIRYYTRTLYQFQFQEALCQAAKHEGPLHKCDISNSTEAGQKLFNMLRLGKSEPWTLALENVVGAKNMNVRPLLNYFEPLFTWLKDQNKNSFVGWSTDWSPYAD	45.1		
pxEBNCP10_tPa-hACE2(18-615)-AAA (receptor) QSTIEEQAKTFLDKFNHEAEDLFYQSSLASWNYNTNITEENVQNMNNAGDKWSAFLKEQSTLAQMYPLQEIQNLTVKLQLQALQQNGSSVLSEDKSKRLNTILNTMSTIYSTGKVCNPDAPAECLLLEPGLNEIMANSLDYNERLWAWESWRSEVGKALRPLYEEYVVLKNEMARANHYEDYGDYWRGDYEVNGVDGYDYSRGQLIEDVEHTFEEIKPLYEHLHAYVRAKLMNAYPSYISPIGCLPAHLLGDMWGRFWTNLYSLTVPFGQKPNIDVTDAMVDQAWDAQRIFKEAEKFFVSVGLPNMTQGFWENSMLTDPGNVQKAVCHPTAWDLGKGDFRILMCTKVTMDDFLTAHHEMGHIQYDMAYAAQPFLLRNGANEGFHEAVGEIMSLSAATPKHLKSIGLLSPDFQEDNETEINFLLKQALTIVGTLPFTYMLEKWRWMVFKGEIPKDQWMKKWWEMKREIVGVVEPVPHDETYCDPASLFHVSNDYSFIRYYTRTLYQFQFQEALCQAAKHEGPLHKCDISNSTEAGQKLFNMLRLGKSEPWTLALENVVGAKNMNVRPLLNYFEPLFTWLKDQNKNSFVGWSTDWSPYAD	60.8		
pxEBNCP19_mIgGHC_hACE2-3A (receptor) QSTIEEQAKTFLDKFNHEAEDLFYQSSLASWNYNTNITEENVQNMNNAGDKWSAFLKEQSTLAQMYPLQEIQNLTVKLQLQALQQNGSSVLSEDKSKRLNTILNTMSTIYSTGKVCNPDAPAECLLLEPGLNEIMANSLDYNERLWAWESWRSEVGKALRPLYEEYVVLKNEMARANHYEDYGDYWRGDYEVNGVDGYDYSRGQLIEDVEHTFEEIKPLYEHLHAYVRAKLMNAYPSYISPIGCLPAHLLGDMWGRFWTNLYSLTVPFGQKPNIDVTDAMVDQAWDAQRIFKEAEKFFVSVGLPNMTQGFWENSMLTDPGNVQKAVCHPTAWDLGKGDFRILMCTKVTMDDFLTAHHEMGHIQYDMAYAAQPFLLRNGANEGFHEAVGEIMSLSAATPKHLKSIGLLSPDFQEDNETEINFLLKQALTIVGTLPFTYMLEKWRWMVFKGEIPKDQWMKKWWEMKREIVGVVEPVPHDETYCDPASLFHVSNDYSFIRYYTRTLYQFQFQEALCQAAKHEGPLHKCDISNSTEAGQKLFNMLRLGKSEPWTLALENVVGAKNMNVRPLLNYFEPLFTWLKDQNKNSFVGWSTDWSPYAD	56.2		
pxEBNCP25_hACE2-AAA(1-615) (receptor) QSTIEEQAKTFLDKFNHEAEDLFYQSSLASWNYNTNITEENVQNMNNAGDKWSAFLKEQSTLAQMYPLQEIQNLTVKLQLQALQQNGSSVLSEDKSKRLNTILNTMSTIYSTGKVCNPDAPAECLLLEPGLNEIMANSLDYNERLWAWESWRSEVGKALRPLYEEYVVLKNEMARANHYEDYGDYWRGDYEVNGVDGYDYSRGQLIEDVEHTFEEIKPLYEHLHAYVRAKLMNAYPSYISPIGCLPAHLLGDMWGRFWTNLYSLTVPFGQKPNIDVTDAMVDQAWDAQRIFKEAEKFFVSVGLPNMTQGFWENSMLTDPGNVQKAVCHPTAWDLGKGDFRILMCTKVTMDDFLTAHHEMGHIQYDMAYAAQPFLLRNGANEGFHEAVGEIMSLSAATPKHLKSIGLLSPDFQEDNETEINFLLKQALTIVGTLPFTYMLEKWRWMVFKGEIPKDQWMKKWWEMKREIVGVVEPVPHDETYCDPASLFHVSNDYSFIRYYTRTLYQFQFQEALCQAAKHEGPLHKCDISNSTEAGQKLFNMLRLGKSEPWTLALENVVGAKNMNVRPLLNYFEPLFTWLKDQNKNSFVGWSTDWSPYAD	73.3		
